In article PMC4775073 one finds fold increase of PLA interactions with 50 nM CT (30 seconds) over no exogenous CT data, which are given here for 1 substance.

For the assay, the target named is FLAG-CTRwt (full-length) (human) (UniProt P30988). Nature of the assay: proximity ligation; in situ PLA (Duolink) on fixed PC cells (PC-3CTRwt, PC-3CTR∆ESS, LNCaP) with anti-ZO-1 and anti-CTR sera; with/without 50 nM CT for 30 seconds; dots per cell counted.
UniProt P30988, sequence (P30988 25-474): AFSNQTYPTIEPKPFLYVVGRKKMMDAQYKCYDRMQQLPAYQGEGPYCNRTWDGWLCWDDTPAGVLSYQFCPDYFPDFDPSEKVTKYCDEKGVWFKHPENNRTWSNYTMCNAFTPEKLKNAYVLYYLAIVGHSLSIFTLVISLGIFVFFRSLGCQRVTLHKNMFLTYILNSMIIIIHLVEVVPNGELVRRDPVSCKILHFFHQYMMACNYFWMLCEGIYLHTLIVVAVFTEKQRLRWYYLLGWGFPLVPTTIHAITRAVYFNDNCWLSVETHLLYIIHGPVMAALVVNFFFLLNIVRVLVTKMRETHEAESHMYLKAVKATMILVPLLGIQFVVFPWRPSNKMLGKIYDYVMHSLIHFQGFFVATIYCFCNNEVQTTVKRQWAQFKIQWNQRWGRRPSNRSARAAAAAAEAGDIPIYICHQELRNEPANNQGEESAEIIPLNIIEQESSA

“Zonula Occludens-1 (ZO-1), endogenous (from UniProt Q07157 1-1748) (natural protein)” registered a fold increase of PLA interactions with 50 nM CT (30 seconds) over no exogenous CT of 80 fold.
